Data published in patent publication US20190083585.
Substitutions are numbered along the chain they refer to. Numbers in names are those of the source.

T1: fluorescently quenched α-gliadin hexapeptide analogue QXL520-PQPQLP-K(5-FAM)-NH2
T1 chain: PQPQLP

T2: Suc-APE-pNA
T2 chain: APE

T3: Suc-APR-pNA
T3 chain: APR

T4: Suc-APQ-pNA
T4 chain: APQ

T5: immunodominant α9-gliadin peptide QLQPFPQPQLPY
T5 chain: QLQPFPQPQLPY

B1: Kumamolisin-As N291D, Q361D (protein)
chain: AAPTAYTPLDVAQAYQFPEGLDGQGQCIAIIELGGGYDEASLAQYFASLGVPAPQVVSVSVDGASNQPTGDPSGPDGEVELDIEVAGALAPGAKFAVYFAPDTDAGFLDAITTAIHDPTLKPSVVSISWGGPEDSWTSAAIAAMNRAFLDAAALGVTVLAAAGDSGSTDGEDDGLYHVDFPAASPYVLACGGTRLVASGGRIAQETVWNDGPDGGATGGGVSRIFPLPAWQEHANVPPSANPGASSGRGVPDLAGNADPATGYEVVIDGEATVIGGTSAVAPLFAALVARINQKLGKAVGYLNPTLYQLPADVFHDITEGNNDIANRAQIYQAGPGWDPCTGLGSPIGVRLLQALLPSASQPQPGSTENLYFQSGALEHHHHHH
B2: Kumamolisin-As G319S, D358G, D368H (protein)
chain: B1 chain with D102N, G130S, D169G, D172Q, D179H
B3: Kumamolisin-As N291D, Q361D, D358G (protein)
chain: B1 chain with D169G
B4: Kumamolisin-As G319S, D368S (protein)
chain: B1 chain with D102N, G130S, D172Q, D179S
B5: Kumamolisin-As N291D, D293A, Q361D, D358N (protein)
chain: B1 chain with D104A, D169N
B6: Kumamolisin-As S262K, D293N, N291D, G319S, D358G, D368H (protein)
chain: B1 chain with S73K, D104N, G130S, D169G, D172Q, D179H
B7: Kumamolisin-As T292S, N291D, G319S, D358G, D368H (protein)
chain: B1 chain with T103S, G130S, D169G, D172Q, D179H
B8: Kumamolisin-As N291D, G319S, D358G, Q361D, D368H (protein)
chain: B1 chain with G130S, D169G, D179H
B9: Kumamolisin-As (wild type) (protein)
chain: B1 chain with D102N, D172Q
B10: Kumamolisin-As N291D, D293A, D358N (protein)
chain: B1 chain with D104A, D169N, D172Q
B11: Kumamolisin-As N291D, D358N (protein)
chain: B1 chain with D169N, D172Q
B12: Kumamolisin-As N291D, G319S, S354N, D358G, Q361D, D368H (protein)
chain: B1 chain with G130S, S165N, D169G, D179H
B13: Kumamolisin-As D358N (protein)
chain: B1 chain with D102N, D169N, D172Q
B14: Kumamolisin-As N291D, D293A, G319S, D358G, Q361D, D368H (protein)
chain: B1 chain with D104A, G130S, D169G, D179H
B15: Kumamolisin-As S354N, D358G, D368H (protein)
chain: B1 chain with D102N, S165N, D169G, D172Q, D179H
B16: Kumamolisin-As N291D, G319S, S354N, D358G, D368H (protein)
chain: B1 chain with G130S, S165N, D169G, D172Q, D179H
B17: Kumamolisin-As D293T, N291D, G319S, D358G, D368H (protein)
chain: B1 chain with D104T, G130S, D169G, D172Q, D179H
B18: Kumamolisin-As T357A (protein)
chain: B1 chain with D102N, T168A, D172Q
B19: Kumamolisin-As N291D, D293A, D358G, Q361D (protein)
chain: B1 chain with D104A, D169G
B20: Kumamolisin-As N291D, D293A (protein)
chain: B1 chain with D104A, D172Q
B21: Kumamolisin-As N291D, G319S, D358G, D368H (protein)
chain: B1 chain with G130S, D169G, D172Q, D179H
B22: Kumamolisin-As D358G (protein)
chain: B1 chain with D102N, D169G, D172Q
B23: KumaMax™ (Kumamolisin-As V119D, S262K, N291D, D293T, G319S, D358G, D368H) (protein)
chain: B1 chain with S73K, D104T, G130S, D169G, D172Q, D179H
B24: Kumamolisin-As S262G, T292S, N291D, G319S, D358G, D368H (protein)
chain: B1 chain with S73G, T103S, G130S, D169G, D172Q, D179H
B25: Kumamolisin-As G319S, S354N, D358G, D368H (protein)
chain: B1 chain with D102N, G130S, S165N, D169G, D172Q, D179H
B26: Kumamolisin-As D358G, D368H (protein)
chain: B1 chain with D102N, D169G, D172Q, D179H
B27: Kumamolisin-As N291D, D293A, G319S, S354N, D358G, Q361D, D368H (protein)
chain: B1 chain with D104A, G130S, S165N, D169G, D179H
B28: Kumamolisin-As N291D (protein)
chain: B1 chain with D172Q
B29: Kumamolisin-As D293A (protein)
chain: B1 chain with D102N, D104A, D172Q

What was measured:
[1] = target: T1, fluorescently quenched α-gliadin …
[2] = target: T2, Suc-APE-pNA
[3] = target: T3, Suc-APR-pNA
[4] = target: T4, Suc-APQ-pNA
[5] = target: T5, immunodominant α9-gliadin peptide …

Protein	Fold Change in Activity of PQ Hydrolysis Relative to Wild Type Kumamolysin-As [1]	also measured
B1	7.5 fold	
B2	7 fold	
B3	20 fold	
B4	2 fold	
B5	14.8 fold	
B6	62 fold	
B7	49 fold	
B8	23.1 fold	
B9	1 fold	Catalytic Efficiency (kcat/KM) [2]: 4 M⁻¹ s⁻¹; Catalytic Efficiency (kcat/KM) [3]: 132 M⁻¹ s⁻¹; Catalytic Efficiency (kcat/KM) [1]: 4.9 M⁻¹ s⁻¹
B10	24 fold	
B11	18.9 fold	
B12	50 fold	
B13	4 fold	
B14	40.9 fold	
B15	9 fold	
B16	54.6 fold	
B17	58 fold	
B18	2 fold	
B19	15 fold	
B20	15 fold	
B21	93 fold	
B22	3 fold	
B23	120 fold	Catalytic Efficiency (kcat/KM) [2]: 1.4 M⁻¹ s⁻¹; fold decrease in activity compared to its activity on the PQ substrate [2]: roughly 5-fold decrease in activity on the PE peptide substrate compared to its activity on the PQ substrate; Catalytic Efficiency (kcat/KM) [4]: 6.7 M⁻¹ s⁻¹; Catalytic Efficiency (kcat/KM) [1]: 568 M⁻¹ s⁻¹; fraction of immunogenic peptide proteolyzed after 50 minutes (LC-MS, pH 4, 37° C.) [5]: over 95% of the immunogenic peptide had been proteolyzed after a 50 minute incubation; half-life of the peptide in the presence of KumaMax [5]: 8.5 ± 0.7 min
B24	29 fold	
B25	5 fold	
B26	6 fold	
B27	58 fold	
B28	10 fold	
B29	3 fold	
